According to the DeepSol protein solubility set:

assay: soluble on expression in E. coli; label from the status in PepcDB or PDB records

| Sequence | soluble on expression in E. coli |
| --- | --- |
| MGSDKIHHHHHHMPTLEPKIPGISLNYVVPTPEPELLTGVPVFFGLVTEEVKEAKKLTLATHFQQYFGQAKGYLADAIKGFFENGGRLCYVIALSNNTLEALQQGLETSEVLENIDLICVPDIMLGSDGEVIQMQQAILKHCEQMGDRFAILDALNDIGKLNEQRKRISSQNGALYAPWLKVEFRVDPIPACGHIAGIYASCDRTVGVHGAPANIPLAGVLDLSFSLTPTDQEQLNPKNEAGVNCIRSFQGRGMRVWGVRTLSPIPEWQYVNVRRLFLTFGRWVNRNLADTVFEPNAFPLWVRLQRELSIYCESLWRQGAIQGALPQEAFYVKCDAETNPPENREMGQVIAEIGLAPTIPGEFIQLLVVQSSSGITLT | not soluble |
| MGSDKIHHHHHHMPTLLMITPENSEINKFKAHQLNNFTQLTMPYLAGFVPEEYSIRLLDEYTEPILFEKVDLVAITVNTPNAPHVYSVSKRFRELGAWVALGGPHVTLNPEEAACHGDTIFVGEAEETWPEFLKDFLSGNMQKVYTSLQVPSLDGLPIPRRDLIVGHRFTSGAVFASRGCPHHCSYCSLKKIYHNKLRTRPVDEVIKDIGSMPNKYFVFWDDNFFADPVYTKALLKELARLNKRWAAQVTAYSCEDEELLSLAKSAGCLYLFLGLESFSEQGLRDANKNFNKIEEYGKVVNKLHRHGISIQAGIVFGFDSDTLDVFETTLKACNKIGVDGVTASILTPFPGTSIYEQYKKEGRLLDVDWDHYNGKTRVAYVPKRMNCKELLNGYNEFRGKFHSWRSIVKRISKSRVNIFYSLAMNYGYKRAYRNFTRLGIGERSDESLGQRMEQHLRNWPR | not soluble |
| MGSDKIHHHHHHMPVAKKYFEIRWHGRAGQGAKSASQMLAEAALEAGKYVQAFPEYGAERTGAPMRAFNRIGDEYIRVRSAVENPDVVVVIDETLLSPAIVEGLSEDGILLVNTVKDFEFVRKKTGFNGKICVVDATDIALQEIKRGIPNTPMLGALVRVTGIVPLEAIEKRIEKMFGKKFPQEVIDANKRALRRGYEEVKCSE | soluble |
| MGSDKIHHHHHHMQEDISRKSPMLSNIKSWYRRRIIENHSVPDDIWQNAIARLRFLQALEAVELERLRECVVLFLHVKQISGAHGLVITDEMRVLIAAQACILILNLDLDYYDGWVEIIVYPGEFIRDYEYVDEDGIVHHAVEPASGESWLGGPVILSWEDAVAAVSGTEISQGYNVVIHEFAHKLDMLNGEANGFPPIHPDMSRQAWSEAFSKAYADFCRSIDAGEMMEIDLYAAESPAEFFAVISEAFFEMPISVRIHFPAVYEQLALFYRQDPAQRRSEP | not soluble |
| MGSDKIHHHHHHMQKLTLKEVQAKAVEILVYIDNICRSNNLHYTLFYGTLIGVERHKGFIPWDDDIDIVMPRPDYELLIKILKNDSNYQLLSFETRKHFRYPFAKLVDPNTVAHSKQYFGGEDKDLGVFVDIFPIDGIPDTQKERNELRKITEQYRLNLMDTLGLSYARSFHLSKALIKLITRYPNHFKVKKVGNNQYWRDLYQTEAKKTPFGATKHCGYLEWIHIDWGVFPNEWFLEYEDVEFEGHKFMAIKNRKQFLTLRYGDYMEMPPVEERITHHPYDFYQK | not soluble |
| MGSDKIHHHHHHMQKRHKDRQCYFNELANTSRSFYIDYVKQFISLSPSTHILEIGCGEGGNLLPFAELGCKVTGIDRAASRIHQAETFFTASGYKGEFTTTDFFNFSSASRYQLILIHDVIEHISNKEEFFRCLSPLLAKRGIIFWGFPSWQMPFGGHQQICHNRFVSSLPFIHLCPGILYRFLLRCFHETPSCIEELSDIKRCRMTIDTFEQLAEKYGYEITDRQLWFINPHYQQKFHLRPRKLYPVLAQLKYIRNYFSTSCFYITRHRELHD | not soluble |
| MGSDKIHHHHHHMQLGTGLFTCQQRPDDDRETSEIYDEMLELGEVIDNAGLDSAWVSEHHFLDDDYLSGVTPALGALAAVTDNIEIGSCIALAPLYDSIRLAEDIATVDQISGGRTTLGMAIGSNVSEFDAFGIPDDERAERLADAVDTLRGAWSDGPLDYEPEFHDISSDVTVTPKPAHDVPLMLGGASRPAVRRAARTADAWCAPSSLSVDGVRKRVEDIRNVRDDEDIEGDFQVYVLQHGFIGDSREDAWAQMRDGYLYIQRRYEEIFSGETVAELDEERKQELKEQAIFGTPDQVTAELESYREALGDDIHFIFRTYHPGTGTQEMAECIRRLGEEVQPKIS | not soluble |
| MGSDKIHHHHHHMQSLYTSASTMAQLQKQLDTTGHNLANANTNGYKRRDSQFNELLVRNLNNQPAGLTPGSLTTPAGLRLGVGGYVANEATRFATGTFQNTGRKLDAALSNPHHFFGVIDADGVTKFTRDGNFELSPQANGQVLLTDDAGRSVINQANEPITFPDDATSIELNKDGNITGVLNGERRVLARIGVADIPNHGELTDVGGGLYTTAGQYQNATGNPLTVGTLETSNVDMATEMTNLTQIQRAYQFNSKALTTSDQMMGIVTSLK | not soluble |
| MGSDKIHHHHHHMQTIQLSNIFKQQAHQTILKDFTLTIPAQSNIGIQMSHVEATTLFNLLRQTTPQTSGVMTGLTPARIQAIFHDDGFYPQLTVSTYLKTFQHISTFETDLDDILQYFALKDVAHTKIKHLSFDQQQRLALLRAFILQPDLLLIESPLTNLTNAGIELYLAALAYTREHGVTVLLTSYSLEELVLTSTTIFRYRPNQGLELTDLATESSSDSAHTSEDTPRPIFKIASKVEDKTVFFSPNEIDFIESVNGVSQLNVSGEQFTSSQTMSELEQQLTTLGFFRCHRSYLVNLQQIAELISYSRNSYTLILKNKSKLPLSRGKLTDLKALINF | not soluble |
| MGSDKIHHHHHHMQVEQRTLNTAAHPFQITAYWLDQISDFETAVDYPIMIICPGGGFTYHSGREEAPIATRMMAAGMHTVVLNYQLIVGDQSVYPWALQQLGATIDWITTQASAHHVDCQRIILAGFSAGGHVVATYNGVATQPELRTRYHLDHYQGQHAAIILGYPVIDLTAGFPTTSAARNQITTDARLWAAQRLVTPASKPAFVWQTATDESVPPINSLKYVQAMLQHQVATAYHLFGSGIHGLALANHVTQKPGKDKYLNDQAAIWPQLALRWLQEQGLLAGNY | not soluble |
| MGSDKIHHHHHHMQVRDFIKHLKNGERPPLTLILGEESALRQQAQHAIASMIPEDQQAMNFGRYDMQQTPVGAALNDATSMPFFGDYREVVIDDPYFLTGEKNADKIDHDLAGLQAYFENPVPSTMMVIIAPYKKLDERKRLTKALKKAALIVNAAPLDEREARAALAQTFKKHQVTIDAPALDTLVQRTNGQYSIMMGEVRKLLTYASDGSPLTVAAVEALVPKQLNDRVFDLVTDVLRKNAAAALALYRDLLAQREEPIRLNALMLGQFRLLLQVKLLAKKGYSQGDIAGTLKAHPYRVKLAMRQVDRLPYQQLATAYSGLVDTETAMKTGTIDKALAFELFMLKYTGQQSGKHVRG | not soluble |
| MGSDKIHHHHHHMQVRIERAERIESELEEHVGDQTFVEESRFLEEDEQREGEILDQIIFVDGKRRSFVRITTDEGITGIFAELCVGAVIWDREGGTKTLFSPDKPPVKERVLGFSQSFQEEGYEEVGGILFKVVKEGKDAMQSIDLYMRSLEIEEVRKHMDKNILIVKDGPAARELPFEENVGPIGLVKNIGVTELSKEDFKKLRFLKKGKRSKMFVSSRETPLKKVGAYVKLIDGEGIRGLVRLETYVKDDNQIPYIRKVFDDLAKTLPHLTADLPIPRLPENILPIQFLEENLSYYLTDKNYMNTRLFAYIGR | soluble |
| MGSDKIHHHHHHMRERTVDYSFCGMVRSRERLARQIVFHHIPKTAGSSFNQILRTLYRDDEVCDAALDDELDEVMADETRRYELFVGHFSFDALHRHFGGATRLTFLRDPVQRCISQYHNWHDASRYSDAWIGRSDTNPDVIKALKMTSEMSLCEFVSSDNLVISDSAQNMMTRYLAPSVEWKKERGYYDAELVEKAKRNLVEYFHFFGLTEQFDRSLVLLAHTLGIRPWERSDALLTNRNPKKASFDSVYNTTPEEGGVLRDYNLMDIELYEFAVKEFNRRFDAGYQKLVECAFEYLADKDTRDMGNAGDFYAFDMTNAVGARGLHFLESTRLPCGADVLGRWTGLEPRAVWEIPLRAGRDSHVVIEVDYIDSVSPEALAPEHFTLNGMPARQHAFSAEGSIQRLRLVFSAGAALAGRMLHTLKLTTPLVRAEDGTRDVGVLLLRLQSYSV | not soluble |
